# Tests used:
# [1] = target: human α-thrombin (human), P00734; experiment: amidolytic assay, Tos-Gly-Pro-Arg-pNA hydrolysis by human α-thrombin, 25° C.
# [2] = target: human α-thrombin (human), P00734; experiment: cell-based or functional assay
# [3] = target: human α-thrombin (human), P00734; experiment: amidolytic assay, 25° C.; from competitive inhibition at inhibitor above 20 nM (footnote c); non-competitive behaviour below 20 nM
Ki [1] [nM],"IC50 (DCT), clotting assay, 37° C. [2] [nM]",Ki [3] [nM],"IC50 (DCT), clotting assay, 37° C.; recombinant peptide WD22-R-YP^(d) [2] [nM]","IC50 (DCT), clotting assay, 37° C.; synthetic peptide [2] [nM]","IC50 (DCT), clotting assay, 37° C.; recombinant peptide WD22-R-P^(d) [2] [nM]",Binder
39,26,,,,,WDPRPQLHNDGDFEPIPEEYLQ (modifications not checked) [WD22-L-P]
,,358,4.8,4.5,,WDPRPQRHNDGDYEPIPEEYLQ (modifications not checked) [WD22-R-YP]
,,171,,6.7,8.1,WDPRPQRHNDGDFEPIPEEYLQ (modifications not checked) [WD22-R-P]
> 2000,> 100000,,,,,FNPRP (modifications not checked) [FN]
